Where a chain is given by its changes, count along the chain named. In names and notes the source's numbering stands. Several values for one entry are separate records, joined by “and”; a condition that tells them apart may be missing. Equal entries are not always repeated.

For orientation: EC50 means the concentration that produces a half-maximal response. What is called EC50 (read off the curve) is the concentration at which the effect is half-maximal. As a reminder, the koff is the rate constant with which the complex falls apart. By kon is commonly meant the second-order rate constant of association.

In assay [1] the target is T1, Recombinant hCD127 (Sino Biologicals, reference 10975-H08H) (human, UniProt P16871 21-239).
T1 construct: Bought protein; also called recombinant hCD127 antigen; rCD127
T1 chain: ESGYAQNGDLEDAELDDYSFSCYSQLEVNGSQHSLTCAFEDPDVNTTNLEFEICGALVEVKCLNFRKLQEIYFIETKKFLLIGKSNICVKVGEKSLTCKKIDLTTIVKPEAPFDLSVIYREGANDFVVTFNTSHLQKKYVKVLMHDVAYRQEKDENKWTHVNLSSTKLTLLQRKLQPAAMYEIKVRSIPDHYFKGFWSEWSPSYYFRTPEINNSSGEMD
The assay can be described thus: ELISA on coated recombinant hCD127, anti-human kappa detection; antibody stored 7 days at 37 °C; printed as ED 50. Here is the method: (§1) FIG. 15. Stability assay of humanized versus Rat anti-CD127 antibodies. Antibody concentrations was measured by ELISA after 7 days at 37° C. (Rat N13B2 wt (+) or humanized N13B2 h3 (square)) and at −80° C. (Rat N13B2 wt (X) or humanized N13B2 h3 (triangle)) and after four frost/defrost events (diamonds).
(§2) Humanized and chimeric purified N13B2-G1 were incubated at 37° C. or at −80° C. for 7 days. Two assays were used to measure stability of antibody: binding anti-CD127 by ELISA assay, and aggregate formation by gel filtration. For activity ELISA assay, recombinant hCD127 (Sino Biologicals, Beijing, China; reference 10975-H08H) was immobilized on plastic at lpg/ml and dilutions of supernatant were added to measure binding. […] For analysis of aggregate formation, sample was analysed on gel filtration chromatography column (Superdex 200, 10/300GL, GeHealthcare) to separate and evaluate aggregate and monomer from samples.

Assay [2] addresses T2, Recombinant CD127 Fc Chimera (10975-H03H, Sino Biological) (human, UniProt P16871 21-239).
T2 construct: Bought protein; also called hCD127-Ig; human CD127Fc; not shown: constant fragment of an immunoglobulin
T2 chain: T1 chain
As to the kind of experiment: ELISA, coated human CD127Fc, revealed with an anti-human kappa antibody.

Assay [3] addresses T1, Recombinant hCD127 (Sino Biologicals, …). As to the kind of experiment: ELISA on coated recombinant hCD127, anti-human kappa detection; antibody stored 7 days at -80 °C; printed as ED 50. Here is the method: as §1, §2
(ELISA stands for enzyme-linked immunosorbent assay.)

In assay [4] the target is T3, Human CD127 (IL-7 receptor alpha chain) expressed on cells (human, UniProt P16871 21-459).
T3 chain: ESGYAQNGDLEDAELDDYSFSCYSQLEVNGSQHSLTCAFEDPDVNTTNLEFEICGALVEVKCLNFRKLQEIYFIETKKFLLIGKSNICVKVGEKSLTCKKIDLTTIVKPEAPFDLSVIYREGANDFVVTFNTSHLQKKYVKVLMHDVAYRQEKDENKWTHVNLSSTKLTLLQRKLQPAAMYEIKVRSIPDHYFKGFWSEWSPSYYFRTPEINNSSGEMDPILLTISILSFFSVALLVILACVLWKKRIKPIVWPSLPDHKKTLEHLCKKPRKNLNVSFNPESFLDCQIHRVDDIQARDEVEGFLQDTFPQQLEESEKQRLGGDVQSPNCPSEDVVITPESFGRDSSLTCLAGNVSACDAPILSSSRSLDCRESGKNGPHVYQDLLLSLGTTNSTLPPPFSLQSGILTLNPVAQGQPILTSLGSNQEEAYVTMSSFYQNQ
The assay can be described thus: cell-based or functional assay.

The target of assay [5] is T2, Recombinant CD127 Fc Chimera …. As to the kind of experiment: ELISA, human CD127Fc coated, revealed with anti-human kappa antibody; printed as ED 50.
For assay [6], the target named is T1, Recombinant hCD127 (Sino Biologicals, …). The assay can be described thus: ELISA on immobilised recombinant hCD127; antibody stored 7 days at -80 °C. The method, then:
as §1, §2

For assay [7] the target is unchanged. The assay can be described thus: ELISA on immobilised recombinant hCD127; antibody stored 7 days at 37 °C. Here is the method:
as §1, §2

The target of assay [8] is T2, Recombinant CD127 Fc Chimera …. As to the kind of experiment: SPR (Biacore 3000), CD127Fc immobilised on CM5 chip, antibody injected, Bivalent analyte model. Here is the method:
FIG. 3. (A) Binding studies of rat N13B2 anti-CD127 antibody. N13B2 antibody or MD707-1 were injected on a CD127 immobilized antigen at different concentration. Resp. diff: Response difference. Time: time in sec (total duration: 20 min). Blk: blank (no antibody). The association and dissociation curves were analyzed with model “Bivalent analyte” on BIAeval 4 software.
(§3) A CM5 chip (GE healthcare) was activated by injection of NHS/EDC mix for 7 min. […] The free reactive residues were inactivated by the injection of 1M ethanolamine pH8.5. […] The injection rate was set at 40 μL/min, the association was measured for 3 min and dissociation for 10 min. Between each cycle of the analysis, the chip was regenerated by injection of a solution of 5M MgCl2 for 60 s.

Assay [9] has the same target. The assay can be described thus: SPR (Biacore 3000), CD127Fc immobilised on CM5 chip, antibody injected, Bivalent analyte model; separate experiment. Here is the method:
as §3

For assay [10], the target named is T1, Recombinant hCD127 (Sino Biologicals, …). The assay can be described thus: ELISA, recombinant hCD127 coated on plastic at 1 µg/ml, antibody titrated; printed as ED 50. The method, then: FIG. 4. The Anti CD127 activity of the new antibody N13B2 was measured by ELISA assay using a recombinant hCD127 antigen. OD 450 nm: optical density at 450 nm. A. The CD127 binding activity of the N13B2 (full circle) was compared to the previous antibody generation (MD707-1 (empty diamond), 3 (empty triangle) and 6 (full square)). N13B2 appears as the most efficient binder in the assay. B. The CD127 activity between different N13B2 formats (rat, IgG1 (circle) or IgG4 (square)) was compared. No significant difference in binding activity was observed.
(§4) The binding activity of the anti hCD127 antibody was assessed by ELISA (Enzyme-linked immunosorbent assay). For the ELISA assay, recombinant hCD127 (Sino Biologicals, Beijing, China; reference 10975-H08H) was immobilized on plastic at 1 μg/ml and purified antibody were added to measure binding.

Assay [11] has the same target. The assay can be described thus: ELISA on immobilised recombinant hCD127. Here is the method: as §4
Assay [12] addresses T3, Human CD127 (IL-7 receptor alpha chain) …. The assay can be described thus: cell-based or functional assay.
Assay [13] has the same target. As to the kind of experiment: cell-based or functional assay.

B1: N13B2 wt (antibody, V domains shown)
VH: AVQLVESGGGLVQPGGSLKLSCAVSGFTLSDYYMAWVRQAPKKGLEWVATISASGLRTYYPDSVKGRFTISRDDAKRSLFLQMTSLKSEDTATYYCARPMSAHYGFNYFDYWGQGVMVTVSS
VL: DIQMTQSPASLSASLGETVTIECRTSEDIYNGLAWYQQKPGKSPQLLVYSANSLHIGVPSRFSGSGSGTQYSLKINSLQFEDVASYFCQQYYDYPLAFGSGTKLEIKR
notes: also called Rat N13B2 wt
As to B1, the EC50 in assay [1] came out at 3.5 ng/mL; in assay [3], 3.6 ng/mL; in [5], 3 ng/mL. For the same molecule, the concentration for a half-maximal effect (EC50 (read off the curve)) is approximately 3 ng/mL in [2], approximately 3 ng/mL in assay [6] and approximately 4 ng/mL in [7]. Also, the “IC 50 of inhibition of IL7 induced P-STAT5 on T lymphocytes (0.1 ng/ml rhIL-7)” value in assay [4] turned out to be 50.2 ng/mL.

B2: N13B2 (rat anti-human CD127 monoclonal antibody) (antibody, V domains shown)
VH: B1 VH
VL: B1 VL
notes: Rat hybridoma antibody; It was detected with anti-rat kappa; also called rat N13B2; N13B2 mAb
In the case of B2, in [8], the Ka was determined as 1.26e+10 M⁻¹, the Kd worked out at 0.0796 nM, the koff is 1.6e-05 s⁻¹ and the kon stood at 201000 M⁻¹ s⁻¹. For the same molecule, in assay [9], the Ka was 2.03e+10 M⁻¹, the Kd is 0.0493 nM, the koff was determined as 4.75e-06 s⁻¹ and the kon was 96300 M⁻¹ s⁻¹. Besides, the EC50 in assay [10] was determined as 65.6 ng/mL. The “EC50 (read off the curve)” value in [11] is approximately 60 ng/mL. For the same molecule, the “inhibition of STAT5 phosphorylation in human PBMC” value (shortened to “inhibition … in human PBMC”) in assay [12] was > 50 % inhibition at 50 ng/ml and > 80 % inhibition at 100 ng/ml (0.1 ng/ml IL-7) and > 90 % inhibition at 100 ng/ml (5 ng/ml IL-7). Further, the “IC50 on P-STAT5 induced by 100 pg/ml of rhIL7” value (from here on “IC50 on P-STAT5 induced”) in [13] is 0.043 ng/mL.

B3: N13B2-G4 (chimeric N13B2, human IgG4 Fc S228P, human CL kappa) (antibody)
heavy: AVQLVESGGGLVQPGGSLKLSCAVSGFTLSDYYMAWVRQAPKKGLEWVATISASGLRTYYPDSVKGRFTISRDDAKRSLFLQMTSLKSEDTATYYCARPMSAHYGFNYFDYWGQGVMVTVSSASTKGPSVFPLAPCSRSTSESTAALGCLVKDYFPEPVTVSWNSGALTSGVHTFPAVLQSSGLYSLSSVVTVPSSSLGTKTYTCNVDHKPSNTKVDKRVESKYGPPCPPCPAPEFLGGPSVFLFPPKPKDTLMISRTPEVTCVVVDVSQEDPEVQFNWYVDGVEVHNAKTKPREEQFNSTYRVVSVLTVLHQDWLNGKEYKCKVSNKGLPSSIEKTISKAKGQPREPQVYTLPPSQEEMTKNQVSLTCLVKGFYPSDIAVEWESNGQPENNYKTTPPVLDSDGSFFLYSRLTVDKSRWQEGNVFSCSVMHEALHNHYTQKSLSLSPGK
light: DIQMTQSPASLSASLGETVTIECRTSEDIYNGLAWYQQKPGKSPQLLVYSANSLHIGVPSRFSGSGSGTQYSLKINSLQFEDVASYFCQQYYDYPLAFGSGTKLEIKRTVAAPSVFIFPPSDEQLKSGTASVVCLLNNFYPREAKVQWKVDNALQSGNSQESVTEQDSKDSTYSLSSTLTLSKADYEKHKVYACEVTHQGLSSPVTKSFNRGEC
notes: also called cN13B2-G4; N13B2-G4m
Turning to B3, in assay [9], the Ka amounted to 5.89e+09 M⁻¹, the Kd was found to be 0.17 nM, the koff came out at 3.41e-06 s⁻¹ and the kon was 20100 M⁻¹ s⁻¹. The 50% effective concentration (EC50) in [10] was 12.6 ng/mL. In addition, in [12], the “inhibition … in human PBMC” value is > 50 % inhibition at 50 ng/ml and > 80 % inhibition at 100 ng/ml (0.1 ng/ml IL-7) and > 90 % inhibition at 100 ng/ml (5 ng/ml IL-7). Besides, in [13], the “IC50 on P-STAT5 induced” value was determined as 0.037 ng/mL.

B4: N13B2-G1 (chimeric N13B2, human IgG1 Fc E333A, human CL kappa) (antibody)
heavy: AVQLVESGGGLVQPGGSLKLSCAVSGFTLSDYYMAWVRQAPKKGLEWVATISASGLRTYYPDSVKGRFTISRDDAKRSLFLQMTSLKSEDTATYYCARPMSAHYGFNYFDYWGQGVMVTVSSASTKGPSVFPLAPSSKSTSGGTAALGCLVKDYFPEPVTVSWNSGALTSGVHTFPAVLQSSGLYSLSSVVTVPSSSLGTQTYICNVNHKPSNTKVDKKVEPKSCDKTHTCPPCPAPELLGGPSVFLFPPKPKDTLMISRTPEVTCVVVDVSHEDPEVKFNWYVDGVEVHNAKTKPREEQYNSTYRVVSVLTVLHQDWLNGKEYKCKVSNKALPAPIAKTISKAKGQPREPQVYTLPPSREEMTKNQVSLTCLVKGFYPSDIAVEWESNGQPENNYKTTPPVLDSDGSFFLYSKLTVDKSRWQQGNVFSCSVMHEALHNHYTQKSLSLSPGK
light: B3 light
notes: also called cN13B2-G1; N13B2-G1m
As to B4, in assay [9], the Ka came to 2.65e+09 M⁻¹, the Kd was determined as 0.377 nM, the koff was determined as 5.62e-05 s⁻¹ and the kon worked out at 149000 M⁻¹ s⁻¹. Further, in assay [10], the EC50 stood at 12 ng/mL. For the same molecule, in assay [12], the “inhibition … in human PBMC” value was > 50 % inhibition at 50 ng/ml and > 80 % inhibition at 100 ng/ml (0.1 ng/ml IL-7) and > 90 % inhibition at 100 ng/ml (5 ng/ml IL-7). Also, in assay [13], the “IC50 on P-STAT5 induced” value was determined as 0.028 ng/mL.

B5: MD707-3 (rat anti-human CD127 antibody, previous generation) (antibody, V domains shown)
VH: AVHLVESGGGLVQPKESLKISCAASGFTFSNAAMYWVRQAPGKGLEWVARIRTKANNYATYYAESVKGRFTISRDDSKSMVYLQMDNVKTDDTAMYYCIVVVLTTTRDYFDYWGQGVMVTVSS
VL: DIVLTQAPLSVSVTPGESASISCRSSQSLLTVKGITSLYWFLQKPGKSPQLLIYRMSNLASGVPDRFRGSGSETDFTLKISKVETEDVGVYYCAQFLEYPHTFGAGTKLELKR
For the molecule B5, the EC50 in [10] was 293 ng/mL. Moreover, the “IC50 on P-STAT5 induced” value in assay [13] was determined as 1.09 ng/mL.

B6: N13B2-h2 (humanized N13B2) (antibody, V domains shown)
VH: QVQLVESGGGLVKPGGSLRLSCAVSGFTLSDYYMAWIRQAPGKGLEWVSTISASGLRTYYPDSVKGRFTISRDNAKNSLYLQMNSLRAEDTAVYYCARPMSAHYGFNYFDYWGQGTLVTVSS
VL: EIVMTQSPATLSVSPGERATLSCRTSEDIYNGLAWYQQKPGQAPRLLIYSANSLHIGIPARFSGSGSGTEFTLTISSLQSEDFAVYYCQQYYDYPLAFGGGTKVEIK
notes: Variable regions only
As to B6, in assay [4], the “IC 50 of inhibition of IL7 induced P-STAT5 on T lymphocytes (0.1 ng/ml rhIL-7)” value is 18.7 ng/mL. For the same molecule, the EC50 in assay [5] stood at 0.6 ng/mL.

B7: N13B2-h1 (humanized N13B2) (antibody, V domains shown)
VH: B6 VH with I37V, S49A, N74D
VL: B6 VL with I48V, F71Y, Y87F
Turning to B7, the “EC50 (read off the curve)” value in assay [2] was approximately 2 ng/mL. In assay [4], the “IC 50 of inhibition of IL7 induced P-STAT5 on T lymphocytes (0.1 ng/ml rhIL-7)” value stood at 63.8 ng/mL. Also, the EC50 in assay [5] was 2.4 ng/mL.

Values taken from patent publication US20170129959A1 (OSE IMMUNOTHERAPEUTICS, published 2017).
